Laboratory results: US20220153822A1 (ALYTAS THERAPEUTICS, published 2022)

T1: Perilipin epitope 6 peptide EVRVPWLHSLAAAQE (SEQ ID NO. 333) (human, Biotin-PEG Spacer and GGSGGS Linker (SEQ ID NO. 438) at the N-terminus, or Biotin-PEG Spacer and AAAAA Linker (SEQ ID NO. 439) at the C-terminus)
T1 construct: Two biotinylated variants were used for selection and ELISA; On the peptide array it stood without biotin; also called target peptide
T1 peptide: EVRVPWLHSLAAAQE


Target: T1, Perilipin epitope 6 peptide …
Assay: phage display selection and ELISA on biotinylated target peptide

| binding result | Binder |
| --- | --- |
| binds | Antibody No. 40 (antibody, V domains shown, human IgG1, lambda or kappa light chain; also called 447-F11) VH: EVQLLESGGGLVKPGGSLRLSCAASGFTFSDYYMSWIRQAPGKGLEWVSYISSSSSYTNYADSVKGRFTISRDNAKNSLYLQMNSLRAEDTAVYYCARLSTVTRAFDIWGQGTMVTVSS VL: DIQLTQSPSSVSASVGDRVTITCRASQGISSWLAWYQQKPGKAPKLLIYAASSLQSGVPSRFSGSGSGTDFTLTISSLQPEDFATYYCQQANSFPPTFGQGTKLEIK |
| binds | Antibody No. 49 (antibody, V domains shown, human IgG1, lambda or kappa light chain; also called 448-H04) VH: not shown VL: DIVMTQSPSSVSASVGDRVTITCRASQGISSWLAWYQQKPGKAPKLLIYAASSLQSGVPSRFSGSGSGTDFTLTISSLQPEDFATYYCQQANSFPPTFGQGTKLEIK |
| binds | Antibody No. 42 (antibody, V domains shown, human IgG1, lambda or kappa light chain; also called 447-B06) VH: QVQLVESGGGVVQPGRSLRLSCAASGFTFSNYAMHWVRQAPGKGLEWVAVISYDGSKKYYADSVKGRFTISRDNSKNTLYLQMNSLGAEDMAVYYCAREDPRRGGIDYWGQGTLVTVSS VL: QSVLTQPPPVSGAPGQRVTISCTGSSSNIGAGYDVHWYQQLPGTAPKLLIYGNSNRPSGVPDRFSGSKSGTSASLAITGLQAEDEADYYCQSYDSSLSGYVFGTGTKVTVL |
| binds | Antibody No. 47 (antibody, V domains shown, human IgG1, lambda or kappa light chain; also called 447-A08) VH: QVQLVQSGGGVVQPGRSLRLSCAASGFTFSSYAMHWVRQAPGKGLEWVAVISYDGSNKYYADSVKGRFTISRDNSKNTLYLQMNSLRAEDTAVYYCAREAGEGVDYWGQGTLVTVSS VL: QSVLTQPPSVSGAPGQRVTISCTGSSSNIGAGYDVHWYQQLPGTAPKLLIYGNSNRPSGVPDRFSGSKSGTSASLAITGLQAEDEADYYCQSYDSSLSGYVFGTGTKLTVL |
| binds | Antibody No. 48 (antibody, V domains shown, human IgG1, lambda or kappa light chain; also called 447-B08) VH: EVQLVQSGGGVVQPGRSLRLSCAASGFTFSSYAMHWVRQAPGKGLEWVAVISYDGSNKYYADSVKGRFTISRDNSKNTLYLQMNSLRAEDTAVYYCAAESAYSSSWSGLRFDPWGQGTLVTVSS VL: QSVLTQPPSVSGAPGQRVTISCTGSSSNIGAGYDVHWYQQLPGTAPKLLIYGNSNRPSGVPDRFSGSKSGTSASLAITGLQAEDEADYYCQSYDSSLSGYVFGTGTKLTVL |
| binds | Antibody No. 45 (antibody, V domains shown, human IgG1, lambda or kappa light chain; also called 447-E08) VH: not shown VL: QSVLTQPPSVSGAPGQRVTISCTGSSSNIGAGYDVHWYQQLPGTAPKLLIYGNSNRPSGVPDRFSGSKSGTSASLAITGLQAEDEADYYCQSYDSSLSGVVFGGGTKVTVL |
| binds | Antibody No. 41 (antibody, V domains shown, human IgG1, lambda or kappa light chain; also called 447-E10) VH: QVQLVQSGGGVVQPGRSQRLSCAASGFTFSNAWMSWVRQAPGKGLEWVSAISGSGGSTYYADSVKGRFTISRDNSKNTLYLQMNSLRAEDTAVYYCAANEGGDAFDIWGQGTMVTVSS VL: not shown |
| binds | Antibody No. 46 (antibody, V domains shown, human IgG1, lambda or kappa light chain; also called 447-B07) VH: QVQLVQSGGGVVQPGRSLRLSCAASGFTFSSYAMHWVRQAPGKGLEWVAVISYDGSNKYYADSVKGRFTISRDNSKNTLYLQMNSLRAEDTAVYYCARDQYDILTGYGGTALDYWGQGTLVTVSS VL: QSALTQPPSASGSPGQSVTISCTGTSSDVGGYNYVSWYQQHPGEAPKLMIYEVSKRPSGVPDRFSGSKSGNTASLTVSGLQAEDEADYYCSSYAGSNNLVFGGGTKLTVL |
| binds | Antibody No. 39 (antibody, V domains shown, human IgG1, lambda or kappa light chain; also called 448-H05) VH: QVQLVESGGGLVQPGRSLRLSCAASGFTFDDYAMHWVRQAPGKGLEWVSGISWNSGSIGYADSVKGRFTISRDNAKNSLYLQMNSLRAEDTALYYCAKDTTWGGSYPYFDYWGQGTLVTVSS VL: not shown |
| binds | Antibody No. 43 (antibody, V domains shown, human IgG1, lambda or kappa light chain; also called 447-A07) V domain 1: QVQLVQSGAEVKKPGSSVKVSCKASGGTFSSYAISWVRQAPGQGLEWMGGIIPIFGTANYAQKSQGRVTITADESTSTAYMELSSLRSEDTAVYYCARESGSGNRIPYGMDVWGQGTMVTVSS V domain 2: QSVLTQPPSVSGAPGQRVTISCTGSSSNIGAGYDVHWYQQLPGTAPKLLIYGNSNRPSGVPDRFSGSKSGTSASLAITGLQAEDEADYYCQSYDSSLSGPVVFGGGTQVTVL |
